In series [1] the target is T1, MBP-tagged PdBSβ (beta subunit of Prunus dulcis benzaldehyde synthase).
T1 chain: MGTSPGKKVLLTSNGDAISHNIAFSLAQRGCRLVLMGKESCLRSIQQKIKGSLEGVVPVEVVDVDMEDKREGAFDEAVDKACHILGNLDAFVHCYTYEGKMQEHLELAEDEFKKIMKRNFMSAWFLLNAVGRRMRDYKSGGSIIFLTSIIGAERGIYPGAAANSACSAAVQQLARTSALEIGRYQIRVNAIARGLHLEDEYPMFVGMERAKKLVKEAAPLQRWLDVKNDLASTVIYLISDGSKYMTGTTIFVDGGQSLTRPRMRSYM

Series [2] has as its target T2, MBP-tagged AtBSβ (beta subunit of Arabidopsis thaliana benzaldehyde synthase).
T2 chain: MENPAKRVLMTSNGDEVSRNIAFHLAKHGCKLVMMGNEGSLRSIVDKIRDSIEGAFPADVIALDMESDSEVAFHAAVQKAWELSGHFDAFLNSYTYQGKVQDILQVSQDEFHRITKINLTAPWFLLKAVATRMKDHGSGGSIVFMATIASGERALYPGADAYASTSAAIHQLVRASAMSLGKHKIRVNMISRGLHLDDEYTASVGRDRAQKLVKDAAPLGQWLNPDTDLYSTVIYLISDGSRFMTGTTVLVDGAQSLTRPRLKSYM

For series [3], the target named is T3, MBP-tagged PhBSβ (beta subunit of Petunia hybrida benzaldehyde synthase).
T3 chain: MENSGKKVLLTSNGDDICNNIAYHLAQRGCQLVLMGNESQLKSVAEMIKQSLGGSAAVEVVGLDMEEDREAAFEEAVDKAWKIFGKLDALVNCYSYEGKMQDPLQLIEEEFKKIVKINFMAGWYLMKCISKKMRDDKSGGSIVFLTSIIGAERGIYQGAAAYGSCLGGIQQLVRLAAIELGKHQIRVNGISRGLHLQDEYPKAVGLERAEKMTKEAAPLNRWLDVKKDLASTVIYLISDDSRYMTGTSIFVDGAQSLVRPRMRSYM

Series [4] has as its target T4, MBP-tagged SlBSβ (beta subunit of Solanum lycopersicum benzaldehyde synthase).
T4 chain: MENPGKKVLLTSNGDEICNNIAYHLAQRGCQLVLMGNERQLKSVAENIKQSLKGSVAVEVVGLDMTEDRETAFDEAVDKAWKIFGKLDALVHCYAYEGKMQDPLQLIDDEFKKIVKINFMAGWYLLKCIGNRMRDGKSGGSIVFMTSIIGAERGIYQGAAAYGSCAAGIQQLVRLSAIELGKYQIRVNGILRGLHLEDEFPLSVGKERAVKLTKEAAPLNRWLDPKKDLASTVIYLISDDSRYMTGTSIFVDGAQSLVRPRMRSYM

B1: MBP-tagged SlBSα (alpha subunit of Solanum lycopersicum benzaldehyde synthase) (protein)
chain: METHAKSVRQLEPWGELAGKVVMVTGASSGIGRDFCSDLSKAGCRIIAAARRIDRLQSLCDEINSNSSNGSTKSSQDLRAVAIELDVSANGSAIEAAVQKAWDAFGRIDGLVNNAGFRGSVLSPLELSEEEWEKIHKTNLRGAWLVTKYVCMHMRAANQGGSIINISSIAGINRGQLPGSLAYTSSKEALNSITKVLALELGPYKIRVNSISPGLFKSEITEGLIQKDWIKNIELRTIPLRTHGTSHPALTSVVRYLIHDSSEYVSGNMFIVDAGATLPGVPIFSSL
For the protein B1, the “BS activity of hybrid enzyme relative to SlBS” value was “activities of SlBSα-PhBSβ and SlBSα-PdBSβ were 6.5-fold lower and 2.7-fold higher, respectively, as compared with SlBS” in series [1]; “activities of SlBSα-PhBSβ and SlBSα-PdBSβ were 6.5-fold lower and 2.7-fold higher, respectively, as compared with SlBS” in series [3]. Moreover, the “BS activity of cross-species heterodimers (subunits mixed 1:1)” value in series [2] is “only the AtBSβ subunit was not able to produce active enzymes upon interaction with PhBSα and SlBSα”. Moreover, the “benzaldehyde synthase activity (GC-MS)” value in series [4] was “benzaldehyde synthases from all three organisms (i.e., Solanum lycopersicum, Prunus dulcis, and Arabidopsis thaliana) showed activity only when two purified recombinant subunits were combined”.

B2: MBP-tagged AtBSα (alpha subunit of Arabidopsis thaliana benzaldehyde synthase) (protein)
chain: MANQVADHLEPWRHLHGKVVMVTGASSGLGREFCLDLAKAGCRIVAAARRIDRLQSVCDEINQLTVTAPSSSSSSSSVNGPGSSRAVAVELDISADGPAIEKSVNKAWDAFGRIDALVNNAGVRGNVSSSLELSEEEWNNVFKTNLTGSWLVSKYVSIRMRDADQGGSIINVSSIAGLHRGYLPGAVAYNCSKAGVNTLAKVMAMELGVHKIRVNAISPGLFRSEITEGLMKKDWLHNVAMKTVPLRTFGTSDPALTSLVRYLVHDSSEYVSGNVYIVDAGATLPGVPIFSAL
As to B2, the “BS activity of hybrid enzyme” value in series [1] is recorded as “the AtBSα-PdBSβ hybrid was as active as PdBS”. In addition, the “BS activity of hybrid enzyme relative to AtBS” value in series [1] was “increasing activity from 4.6- to 7.8-fold in AtBSα-SlBSβ and AtBSα-PdBSβ, respectively, relative to AtBS”; in series [3] it was “interactions of the three tested β subunits with AtBSα promoted activities of hybrid proteins”; in series [4], “increasing activity from 4.6- to 7.8-fold in AtBSα-SlBSβ and AtBSα-PdBSβ, respectively, relative to AtBS”. The “benzaldehyde synthase activity (GC-MS)” value in series [2] was “benzaldehyde synthases from all three organisms (i.e., Solanum lycopersicum, Prunus dulcis, and Arabidopsis thaliana) showed activity only when two purified recombinant subunits were combined”.

B3: MBP-tagged PdBSα (alpha subunit of Prunus dulcis benzaldehyde synthase) (protein)
chain: MANQVADHLEPWRHLHGKVVMVTGASSGLGREFCLDLAKAGCRIVAAARRIDRLQSVCDEINQLTVTAPSSSSSSSSVNGPGSSRAVAVELDISADGPAIEKSVNKAWDAFGRIDALVNNAGVRGNVSSSLELSEEEWNNVFKTNLTGSWLVSKYVSIRMRDADQGGSIINVSSIAGLHRGYLPGAVAYNCSKAGVNTLAKVMAMELGVHKIRVNAISPGLFRSEITEGLMKKDWLHNVAMKTVPLRTFGTSDPALTSLVRYLVHDSSEYVSGNVYIVDAGATLPGVPIFSAL
Regarding B3, the “benzaldehyde synthase activity (GC-MS)” value in series [1] is “benzaldehyde synthases from all three organisms (i.e., Solanum lycopersicum, Prunus dulcis, and Arabidopsis thaliana) showed activity only when two purified recombinant subunits were combined”. The “BS activity of hybrid enzyme relative to PdBS” value in series [3] and in series [4] was “the activities of hybrid enzymes comprising PdBSα were up to 2.5-fold lower than that of PdBS enzyme” throughout.

B4: MBP-PhBSα (maltose binding protein-tagged alpha subunit of Petunia hybrida benzaldehyde synthase) (protein)
chain: MEKQTQARFLEPWRDLKGKVVMVTGASSGIGLDLCLDLAKAGCKIIAAARRVDRLKSLCNQINAAADDDDDNNRAVAVELDVSANGDAIEAAVKEAWGAFGRIDALVNNAGVRGTVHSPLELTEEECHNTFRTNLTGTWLVSKYVCKFMRDAKQGGSVINISSIAGLNRGQLPGGLAYVSSKGAVNMVTKVMALELGVDKIRVNSISPGLFKSEITQGLIQKEWLNNVAMRTIPLRTHGNSADPALTSVVRYLIHDSSEYVSGNLFIVDAGATLPGVPIFSSL
On to B4, for which the “BS activity of cross-species heterodimers (subunits mixed 1:1)” value in series [1] is “interactions of PdBSβ and SlBSβ with PhBSα resulted in hybrid enzymes with activities almost identical to that of PhBS”; in series [2], “only the AtBSβ subunit was not able to produce active enzymes upon interaction with PhBSα and SlBSα”; in series [4], “interactions of PdBSβ and SlBSβ with PhBSα resulted in hybrid enzymes with activities almost identical to that of PhBS”. In series [3], the “benzaldehyde synthase activity (benzoyl-CoA + NADPH, GC-MS)” value is “Neither of the two purified recombinant proteins displayed benzaldehyde synthase activity when tested alone ... however, benzaldehyde was efficiently formed when the two subunit proteins were mixed in equal amounts (e.g., a 1:1 ratio)”.

The values above are taken from US20250034601.
